We go through one molecule from patent publication US20230028110A1 (ADAPTATE BIOTHERAPEUTICS, published 2023).

One assay deals with T1, Recombinant human PD-1 (human, UniProt Q15116 25-167, limits assumed).
T1 construct: also called programmed cell death protein 1
Nature of the assay: SPR, Reichert 4SPR; antibody captured on Protein A chip, human PD-1 flown over. In general terms: In SPR one partner is held on a chip, and binding of the other changes the refractive index at the surface.

The target of assay [1] is T2, L1 (DV1-GV4), soluble human Vδ1/Vγ4 γδ TCR heterodimer in leucine zipper format (human).
T2 construct: Biotinylated in the DELFIA ranking; also called Antigen L1 (TRDV1/TRGV4); human DV1-GV4; not shown: gamma chain: Vγ4 (TRGV4) domain on a TCR constant region, leucine zipper, histidine tag
Nature of the assay: SPR (Reichert 4SPR), antibody on Protein A chip, antigen flown over.

The target of assay [2] is T3, Vδ1 chain of the γδ TCR on human Vδ1 γδ T cells (human).
T3 construct: whole, on cells; also called cell surface Vδ1 TCR; Vδ1-positive γδ T cells
The assay is described as follows: flow cytometry on Vδ1 γδ T-cells, anti-human IgG secondary antibody, % cells bound IgG. In general terms: A flow cytometer gives signals particle by particle.
Description: (§1) After washing, cells were incubated for a further 15 minutes with anti-human IgG secondary antibodies before washing and fixing. The amount of antibody bound to each cell type was determined by flow cytometry.

A further assay has as its target T4, Recombinant human 4-1BB (human, UniProt Q07011 24-186).
T4 construct: also called CD137
The assay is described as follows: SPR, Reichert 4SPR; antibody captured on Protein A chip, human 4-1BB flown over.

The target in assay [3] is T3, Vδ1 chain of the γδ TCR on human Vδ1 γδ …. Nature of the assay: flow cytometry, Vδ1 γδ T cells of donor TS164, mAb titrated up to about 500 nM at 4 C, anti-human IgG detection.
Description: (§2) All incubation steps were performed at 4° C. and mAb binding was determined using flow cytometry to measure the median level of fluorescence. Logarithmic four parameter dose-response curves were fitted using GraphPad Prism 9. […] For Vδ1-positive γδ T cell, data is represented as the mean two donors.
(§3) A range of target cells were assayed to determine the specificity and affinity of Vδ1 mAb binding. This included expanded skin-derived Vδ1 γδ T-cells, HEK293T cells, Raji cells, and multiple leukocyte subsets within human primary blood mononuclear cells. Adherent or semi-adherent cells (skin-derived Vδ1 γδ T-cells, HEK293T) were detached from tissue culture flask and resuspended in PBS. Similarly, non-adherent cell types (Raji, PBMC), were harvested and resuspended in PBS. Cells were seeded at a final density of 100,000 cells per well in v-bottom 96-well plates. Cells underwent centrifugation and the cell pellets were resuspended in FcR blocking reagent according to the manufacturer's instructions, and incubated for 20 minutes at 4C prior to a further wash. […] To determine the quantity of mAb bound to the cell surface, the cells were then stained with a murine anti-human IgG secondary antibody, conjugated to APC (dilution: 1:100). For Vδ1 γδ T-cells, HEK293T and Raji, the cells were also stained solely with a viability dye.
For assay [4] the target is unchanged. Nature of the assay: flow cytometry on Vδ1 γδ T-cells, anti-human IgG secondary antibody, % cells bound IgG. This is another data set of the same source.
For the next assay, the target named is T5, Recombinant human TIGIT (human, UniProt Q495A1 22-141).
T5 construct: also called T cell immunoreceptor with Ig and ITIM domains
T5 sequence (looked up): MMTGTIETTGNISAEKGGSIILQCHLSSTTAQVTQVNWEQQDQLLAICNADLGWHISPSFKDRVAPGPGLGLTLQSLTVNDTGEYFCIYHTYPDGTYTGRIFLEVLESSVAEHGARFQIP
The assay is described as follows: SPR, Reichert 4SPR; antibody captured on Protein A chip, human TIGIT flown over.

Assay [5] concerns the target T2, L1 (DV1-GV4), soluble human Vδ1/Vγ4 γδ …. Nature of the assay: SPR (Reichert 4SPR), antibody on Protein A chip, Vδ1 heterodimer at 6.25-100 nM as analyte.
Assay [6] has as its target T6, Cyno DV1/GV77 antigen, recombinant cynomolgus Vδ1 heterodimer (cynomolgus monkey).
T6 construct: also called cyno TRDV1; Cyno DV1-77; not shown: delta CDR3/J, TCR constant region, zipper and tag; the whole gamma chain GV77
The assay is described as above.

Assay [7] has as its target T3, Vδ1 chain of the γδ TCR on human Vδ1 γδ …. Nature of the assay: flow cytometry on Vδ1 γδ T-cells, anti-human IgG secondary antibody.
Description: as §1
The target is the same in assay [8]. The assay is described as follows: flow cytometry, Vδ1 γδ T cells of donor ATS006, mAb titrated up to about 500 nM at 4 C, anti-human IgG detection.
Description: as §2, §3

T3 sequence (A0A1B0GX56 22-115, stated change not applied): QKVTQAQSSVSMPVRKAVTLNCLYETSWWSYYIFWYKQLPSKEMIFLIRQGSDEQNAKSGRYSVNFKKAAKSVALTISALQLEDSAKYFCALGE
T2 sequence (main, as listed by the source): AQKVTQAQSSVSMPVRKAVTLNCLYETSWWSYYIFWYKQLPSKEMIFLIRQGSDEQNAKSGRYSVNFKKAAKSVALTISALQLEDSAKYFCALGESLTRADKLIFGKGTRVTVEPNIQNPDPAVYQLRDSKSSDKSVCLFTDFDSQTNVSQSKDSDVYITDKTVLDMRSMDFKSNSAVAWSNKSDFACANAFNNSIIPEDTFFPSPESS
T1 sequence (Q15116 25-167 limits assumed): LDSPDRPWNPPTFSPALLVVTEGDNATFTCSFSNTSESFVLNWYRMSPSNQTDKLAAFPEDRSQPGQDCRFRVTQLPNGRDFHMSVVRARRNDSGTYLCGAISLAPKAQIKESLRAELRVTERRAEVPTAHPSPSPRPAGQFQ
T6 sequence (delta, as listed by the source limits assumed): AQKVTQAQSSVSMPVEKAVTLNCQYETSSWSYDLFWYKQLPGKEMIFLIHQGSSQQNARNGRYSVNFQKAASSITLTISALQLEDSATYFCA
T4 sequence (Q07011 24-186 limits assumed): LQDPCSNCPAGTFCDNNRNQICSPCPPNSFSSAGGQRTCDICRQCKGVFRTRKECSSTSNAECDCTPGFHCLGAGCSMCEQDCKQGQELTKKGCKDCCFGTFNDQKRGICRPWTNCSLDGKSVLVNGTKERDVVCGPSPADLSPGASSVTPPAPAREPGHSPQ
Description for Recombinant human 4-1BB: Recombinant human Vδ1 heterodimer or human 4-1BB was flown over the cell at a top concentration of 100 nM.
Description for Recombinant human PD-1: Recombinant human Vδ1 heterodimer or human PD-1 was flown over the cell at a top concentration of 100 nM.
Description for Recombinant human TIGIT: Recombinant human Vδ1 heterodimer or human TIGIT was flown over the cell at a top concentration of 100 nM.

B1: ADT1-4-2 (antibody, IgG1, V domains shown)
VH: EVQLQQSGPGLVKPSQTLSLTCAISGDSVSSKSAAWNWIRQSPSRGLEWLGRTYYRSKWSTDYAASVKSRITINPDTSKNQLSLQLNSVTPEDTAVYYCARTWVGYVDRWGQGTLVTVSS
VL: DIQMTQSPPALSASVGDRVTITCRASQDINDWLAWYQHKPGKAPKLLIYDASSLESGVPLRFSGSGSGTEFTLTISSLQPDDFATYYCQQKYSAPQVTFGQGTRLEIK
notes: IgG1
For B1, the binding result with Recombinant human PD-1, in the assay with Recombinant human 4-1BB and with Recombinant human TIGIT was “no binding” each time. Further, the Kd stood at 0.29 nM in [1], 0.34 nM in assay [5] and 2.6 nM in assay [6]. Also, the “EC50 (read off the curve)” value in [2] is approximately 0.2 nM; in [3], approximately 2 nM; in assay [4], approximately 0.2 nM; in [7] it was approximately 5 nM; in assay [8], approximately 2 nM.

By Kd is commonly meant the constant that tells how readily two partners part at equilibrium. The term EC50 (read off the curve) denotes the concentration at which the effect is half-maximal.
